Target: T1, XPF (UniProt Q92889 1-916)
T1 sequence (looked up): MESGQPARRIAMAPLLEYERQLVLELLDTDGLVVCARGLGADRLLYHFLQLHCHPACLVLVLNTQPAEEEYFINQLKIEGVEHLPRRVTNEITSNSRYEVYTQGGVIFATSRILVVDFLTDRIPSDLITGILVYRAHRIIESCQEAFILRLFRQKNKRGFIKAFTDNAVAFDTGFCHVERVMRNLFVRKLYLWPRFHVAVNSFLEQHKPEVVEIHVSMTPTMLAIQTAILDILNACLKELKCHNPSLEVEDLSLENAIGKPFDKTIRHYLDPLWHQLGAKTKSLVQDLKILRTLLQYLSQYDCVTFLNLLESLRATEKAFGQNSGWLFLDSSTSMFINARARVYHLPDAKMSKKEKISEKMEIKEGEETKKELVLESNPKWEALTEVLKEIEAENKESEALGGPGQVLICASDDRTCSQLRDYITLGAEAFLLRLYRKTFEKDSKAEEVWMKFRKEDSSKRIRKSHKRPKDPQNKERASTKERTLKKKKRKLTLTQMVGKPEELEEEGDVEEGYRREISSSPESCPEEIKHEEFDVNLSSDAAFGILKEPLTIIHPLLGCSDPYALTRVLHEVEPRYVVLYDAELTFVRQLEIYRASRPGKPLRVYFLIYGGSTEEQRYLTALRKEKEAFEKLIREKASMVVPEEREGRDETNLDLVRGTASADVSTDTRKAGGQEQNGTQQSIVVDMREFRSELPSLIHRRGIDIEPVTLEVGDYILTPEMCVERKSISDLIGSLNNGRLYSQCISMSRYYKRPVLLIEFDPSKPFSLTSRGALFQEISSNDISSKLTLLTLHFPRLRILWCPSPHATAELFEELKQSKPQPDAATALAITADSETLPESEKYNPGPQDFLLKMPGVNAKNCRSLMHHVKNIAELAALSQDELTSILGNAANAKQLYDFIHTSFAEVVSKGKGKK
Experiment: SPR

B1: ERCC1 (natural protein, UniProt P07992 1-297, looked up)
chain: MDPGKDKEGVPQPSGPPARKKFVIPLDEDEVPPGVAKPLFRSTQSLPTVDTSAQAAPQTYAEYAISQPLEGAGATCPTGSEPLAGETPNQALKPGAKSNSIIVSPRQRGNPVLKFVRNVPWEFGDVIPDYVLGQSTCALFLSLRYHNLHPDYIHGRLQSLGKNFALRVLLVQVDVKDPQQALKELAKMCILADCTLILAWSPEEAGRYLETYKAYEQKPADLLMEKLEQDFVSRVTECLTTVKSVNKTDSQTLLTTFGSLEQLIAASREDLALCPGLGPQKARRLFDVLHEPFLKVP
Kd: ~5 nM

Source: publication PMC3488251 (Nucleic Acids Research, 2012)
